# Measurements published in publication PMC10391570 (Cell Reports Methods, 2023).
# Columns and labels:
# Assay in all cases: ELISA
# [1] = biological target: Der p2 (Dermatophagoides pteronyssinus, UniProt P49278, biotin (Biotin Conjugation Kit, Lightning-Link))
# [2] = biological target: Der f1 (Dermatophagoides farinae, UniProt P16311, biotin (Biotin Conjugation Kit, Lightning-Link))
# [3] = biological target: Ole e1 (Olea europaea, UniProt P19963, biotin (Biotin Conjugation Kit, Lightning-Link))
# [4] = biological target: Fel d1 (Felis catus, UniProt P30438;P30440)
# [5] = biological target: Der p1 (Dermatophagoides pteronyssinus, UniProt P08176, biotin (Biotin Conjugation Kit, Lightning-Link))
# Chain of Der p1 (P08176 99-320): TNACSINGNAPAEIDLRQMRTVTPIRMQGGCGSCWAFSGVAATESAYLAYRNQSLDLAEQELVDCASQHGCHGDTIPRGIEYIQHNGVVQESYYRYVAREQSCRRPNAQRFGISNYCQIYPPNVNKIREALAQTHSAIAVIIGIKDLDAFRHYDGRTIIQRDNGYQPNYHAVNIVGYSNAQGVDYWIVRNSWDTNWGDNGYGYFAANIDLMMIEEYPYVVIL
# Chain of Der p2 (P49278 18-146): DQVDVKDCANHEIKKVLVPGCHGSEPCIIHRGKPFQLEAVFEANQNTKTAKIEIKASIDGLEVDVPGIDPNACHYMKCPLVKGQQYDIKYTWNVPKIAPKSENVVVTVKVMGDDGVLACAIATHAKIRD
# Chain of Der f1 (P16311 99-321): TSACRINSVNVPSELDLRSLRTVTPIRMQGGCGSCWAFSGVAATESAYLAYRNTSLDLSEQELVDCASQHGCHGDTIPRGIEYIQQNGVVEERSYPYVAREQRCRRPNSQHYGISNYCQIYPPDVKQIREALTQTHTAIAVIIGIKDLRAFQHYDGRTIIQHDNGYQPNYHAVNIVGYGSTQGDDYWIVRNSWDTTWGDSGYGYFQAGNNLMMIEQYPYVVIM
# Chain of Fel d1 (P30438 23-92, chain 1 of 2): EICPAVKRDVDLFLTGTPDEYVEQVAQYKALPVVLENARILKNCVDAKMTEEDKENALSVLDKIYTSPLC
# Chain of Fel d1 (P30440 18-109, chain 2 of 2): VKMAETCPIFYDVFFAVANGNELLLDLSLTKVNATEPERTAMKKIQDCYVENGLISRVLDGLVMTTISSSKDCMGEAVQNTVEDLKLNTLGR
Binder,binding result [1],binding result [2],binding result [3],binding result [4],binding result [5]
"IgE mAb 8_2 (antibody, V domains shown) VH: QVLLKESGPGLVAPSQSLSITCTVSGFSLTSYGVSWVRQPPGKGLEWLGVIWGDGNTDYHSALISRLSIRKDNSKSQVFLKLNSLQTDDTATYYCAIGSPFAYWGQGTLVTVSA VL: DVLMTQTPLSLPVSLGDQVSISCRSSQNIVHSTGNTYLEWYLQKPGQSPKLLIFKVSNRLSGVPDRFSGSGSGTDFTLNISRVEAADLGIYSCFQGSHVPFTFGSGTKLEIK",binds,–,–,–,–
"IgE mAb1_2 (antibody, V domains shown) VH: QIQLVQSGPELKKPGETVKISCKASGYTFTTYGMSWVKQAPGKGLKWMGWINTYSGVPTYADDFKGRFVFSLETSASTAYLQINNLKNEDTATYFCARAYYYGSSYLIWYFDVWGTGTTVTVSS VL: NIVLTQSPASLAVSLGQRATISCRASESVDSYGNSFMHWYQQKPGQPPKLLIYLASNLESGVPARFSGSGSRTDFTLTIDPVEADDAATYYCQQNNEDPYTFGGGTKLEIK",–,binds,–,–,–

# The remaining lines, values ahead:
binding result [1],binding result [2],binding result [3],binding result [4],binding result [5],Binder
binds,binds,binds,no binding,binds,"IgE monoclonal antibody mAb12_2 (antibody, V domains shown) VH: QAYLQQSGAELVRPGASVKMSCKASGYTFISYNMHWVKQTRRQGLEWIGAIYPGNGDTSYNQKFKGKATLTVDKSSSTAYMQLSSLTSEDSAVYFCARWDYYGSSYGAYWGQGTLVTVSA VL: DIQMTQSPASLSVSVGETVTITCRASENIYSNLAWYQQKQGKSPQLLVYAATNLADGVPSRFSGSGSGTQYSLKINSLQSEDFGSYYCQHFWGTPWTFGGGTKLEIK"
binds,–,–,–,–,"IgE mAb 21_2 (antibody, V domains shown) VH: QVQLQQSGPELVKPGASVKISCKAPGNAFSYSWMNWVKQRPGKGLEWVGRIYPGDGDTNYNGKFMGKATLTADKSSNTAYIQLSSLTSEDSAVYFCARSGGGTLYWYFDVWGTGTTVTVSS VL: DIVMTQSPSSLALSVGQKVTMNCRSSQSLLNSFNQKNYLAWFQQKPGQSPRLLIYFASTRESGVPDRFIGSGSGTDFTLTISSVQAEDLADYFCQQHYNTPLTFGAGTTLELK"
